Data from PMC8298264, “Function of cofactor Akirin2 in the regulation of gene expression in model human neutrophil-like HL60 cells” (Bioscience Reports, 2021).

B1: sp¦Q9BTT0¦AN32E_HUMAN (protein, UniProt Q9BTT0 1-268, looked up)
Acidic leucine-rich nuclear …: MEMKKKINLELRNRSPEEVTELVLDNCLCVNGEIEGLNDTFKELEFLSMANVELSSLARLPSLNKLRKLELSDNIISGGLEVLAEKCPNLTYLNLSGNKIKDLSTVEALQNLKNLKSLDLFNCEITNLEDYRESIFELLQQITYLDGFDQEDNEAPDSEEEDDEDGDEDDEEEEENEAGPPEGYEEEEEEEEEEDEDEDEDEDEAGSELGEGEEEVGLSYLMKEEIQDEEDDDDYVEEGEEEEEEEEGGLRGEKRKRDAEDDGEEEDD
B2: sp¦Q9UGP8¦SEC63_HUMAN (protein, UniProt Q9UGP8 1-760, looked up)
Translocation protein SEC63 …: MAGQQFQYDDSGNTFFYFLTSFVGLIVIPATYYLWPRDQNAEQIRLKNIRKVYGRCMWYRLRLLKPQPNIIPTVKKIVLLAGWALFLFLAYKVSKTDREYQEYNPYEVLNLDPGATVAEIKKQYRLLSLKYHPDKGGDEVMFMRIAKAYAALTDEESRKNWEEFGNPDGPQATSFGIALPAWIVDQKNSILVLLVYGLAFMVILPVVVGSWWYRSIRYSGDQILIRTTQIYTYFVYKTRNMDMKRLIMVLAGASEFDPQYNKDATSRPTDNILIPQLIREIGSINLKKNEPPLTCPYSLKARVLLLSHLARMKIPETLEEDQQFMLKKCPALLQEMVNVICQLIVMARNREEREFRAPTLASLENCMKLSQMAVQGLQQFKSPLLQLPHIEEDNLRRVSNHKKYKIKTIQDLVSLKESDRHTLLHFLEDEKYEEVMAVLGSFPYVTMDIKSQVLDDEDSNNITVGSLVTVLVKLTRQTMAEVFEKEQSICAAEEQPAEDGQGETNKNRTKGGWQQKSKGPKKTAKSKKKKPLKKKPTPVLLPQSKQQKQKQANGVVGNEAAVKEDEEEVSDKGSDSEEEETNRDSQSEKDDGSDRDSDREQDEKQNKDDEAEWQELQQSIQRKERALLETKSKITHPVYSLYFPEEKQEWWWLYIADRKEQTLISMPYHVCTLKDTEEVELKFPAPGKPGNYQYTVFLRSDSYMGLDQIKPLKLEVHEAKPVPENHPQWDTAIEGDEDQEDSEGFEDSFEEEEEEEEDDD
B3: sp¦P20340¦RAB6A_HUMAN (protein, UniProt P20340 2-208, looked up)
Ras-related protein Rab-6A: STGGDFGNPLRKFKLVFLGEQSVGKTSLITRFMYDSFDNTYQATIGIDFLSKTMYLEDRTVRLQLWDTAGQERFRSLIPSYIRDSTVAVVVYDITNVNSFQQTTKWIDDVRTERGSDVIIMLVGNKTDLADKRQVSIEEGERKAKELNVMFIETSAKAGYNVKQLFRRVAAALPGMESTQDRSREDMIDIKLEKPQEQPVSEGGCSC
B4: sp¦Q02218¦ODO1_HUMAN (protein, UniProt Q02218 41-1023, looked up)
2-oxoglutarate dehydrogenase …: SAPVAAEPFLSGTSSNYVEEMYCAWLENPKSVHKSWDIFFRNTNAGAPPGTAYQSPLPLSRGSLAAVAHAQSLVEAQPNVDKLVEDHLAVQSLIRAYQIRGHHVAQLDPLGILDADLDSSVPADIISSTDKLGFYGLDESDLDKVFHLPTTTFIGGQESALPLREIIRRLEMAYCQHIGVEFMFINDLEQCQWIRQKFETPGIMQFTNEEKRTLLARLVRSTRFEEFLQRKWSSEKRFGLEGCEVLIPALKTIIDKSSENGVDYVIMGMPHRGRLNVLANVIRKELEQIFCQFDSKLEAADEGSGDVKYHLGMYHRRINRVTDRNITLSLVANPSHLEAADPVVMGKTKAEQFYCGDTEGKKVMSILLHGDAAFAGQGIVYETFHLSDLPSYTTHGTVHVVVNNQIGFTTDPRMARSSPYPTDVARVVNAPIFHVNSDDPEAVMYVCKVAAEWRSTFHKDVVVDLVCYRRNGHNEMDEPMFTQPLMYKQIRKQKPVLQKYAELLVSQGVVNQPEYEEEISKYDKICEEAFARSKDEKILHIKHWLDSPWPGFFTLDGQPRSMSCPSTGLTEDILTHIGNVASSVPVENFTIHGGLSRILKTRGEMVKNRTVDWALAEYMAFGSLLKEGIHIRLSGQDVERGTFSHRHHVLHDQNVDKRTCIPMNHLWPNQAPYTVCNSSLSEYGVLGFELGFAMASPNALVLWEAQFGDFHNTAQCIIDQFICPGQAKWVRQNGIVLLLPHGMEGMGPEHSSARPERFLQMCNDDPDVLPDLKEANFDINQLYDCNWVVVNCSTPGNFFHVLRRQILLPFRKPLIIFTPKSLLRHPEARSSFDEMLPGTHFQRVIPEDGPAAQNPENVKRLLFCTGKVYYDLTRERKARDMVGQVAITRIEQLSPFPFDLLLKEVQKYPNAELAWCQEEHKNQGYYDYVKPRLRTTISRAKPVWYAGRDPAAAPATGNKKTHLTELQRLLDTAFDLDVFKNFS
B5: sp¦Q9Y276¦BCS1_HUMAN (protein, UniProt Q9Y276 2-419, looked up)
Mitochondrial chaperone BCS1: PLSDFILALKDNPYFGAGFGLVGVGTALALARKGVQLGLVAFRRHYMITLEVPARDRSYAWLLSWLTRHSTRTQHLSVETSYLQHESGRISTKFEFVPSPGNHFIWYRGKWIRVERSREMQMIDLQTGTPWESVTFTALGTDRKVFFNILEEARELALQQEEGKTVMYTAVGSEWRPFGYPRRRRPLNSVVLQQGLADRIVRDVQEFIDNPKWYTDRGIPYRRGYLLYGPPGCGKSSFITALAGELEHSICLLSLTDSSLSDDRLNHLLSVAPQQSLVLLEDVDAAFLSRDLAVENPVKYQGLGRLTFSGLLNALDGVASTEARIVFMTTNHVDRLDPALIRPGRVDLKEYVGYCSHWQLTQMFQRFYPGQAPSLAENFAEHVLRATNQISPAQVQGYFMLYKNDPVGAIHNAESLRR
B6: sp¦O75746¦CMC1_HUMAN (protein, UniProt O75746 2-678, looked up)
Electrogenic …: AVKVQTTKRGDPHELRNIFLQYASTEVDGERYMTPEDFVQRYLGLYNDPNSNPKIVQLLAGVADQTKDGLISYQEFLAFESVLCAPDSMFIVAFQLFDKSGNGEVTFENVKEIFGQTIIHHHIPFNWDCEFIRLHFGHNRKKHLNYTEFTQFLQELQLEHARQAFALKDKSKSGMISGLDFSDIMVTIRSHMLTPFVEENLVSAAGGSISHQVSFSYFNAFNSLLNNMELVRKIYSTLAGTRKDVEVTKEEFAQSAIRYGQVTPLEIDILYQLADLYNASGRLTLADIERIAPLAEGALPYNLAELQRQQSPGLGRPIWLQIAESAYRFTLGSVAGAVGATAVYPIDLVKTRMQNQRGSGSVVGELMYKNSFDCFKKVLRYEGFFGLYRGLIPQLIGVAPEKAIKLTVNDFVRDKFTRRDGSVPLPAEVLAGGCAGGSQVIFTNPLEIVKIRLQVAGEITTGPRVSALNVLRDLGIFGLYKGAKACFLRDIPFSAIYFPVYAHCKLLLADENGHVGGLNLLAAGAMAGVPAASLVTPADVIKTRLQVAARAGQTTYSGVIDCFRKILREEGPSAFWKGTAARVFRSSPQFGVTLVTYELLQRWFYIDFGGLKPAGSEPTPKSRIADLPPANPDHIGGYRLATATFAGIENKFGLYLPKFKSPSVAVVQPKAAVAATQ
B7: sp¦Q8WU39¦MZB1_HUMAN (protein, UniProt Q8WU39 23-189, looked up)
Marginal zone B- and …: DRAPLTATAPQLDDEEMYSAHMPAHLRCDACRAVAYQMWQNLAKAETKLHTSNSGGRRELSELVYTDVLDRSCSRNWQDYGVREVDQVKRLTGPGLSEGPEPSISVMVTGGPWPTRLSRTCLHYLGEFGEDQIYEAHQQGRGALEALLCGGPQGACSEKVSATREEL
B8: sp¦Q9UHD1¦CHRD1_HUMAN (protein, UniProt Q9UHD1 2-332, looked up)
Cysteine and histidine-rich …: ALLCYNRGCGQRFDPETNSDDACTYHPGVPVFHDALKGWSCCKRRTTDFSDFLSIVGCTKGRHNSEKPPEPVKPEVKTTEKKELCELKPKFQEHIIQAPKPVEAIKRPSPDEPMTNLELKISASLKQALDKLKLSSGNEENKKEEDNDEIKIGTSCKNGGCSKTYQGLESLEEVCVYHSGVPIFHEGMKYWSCCRRKTSDFNTFLAQEGCTKGKHMWTKKDAGKKVVPCRHDWHQTGGEVTISVYAKNSLPELSRVEANSTLLNVHIVFEGEKEFDQNVKLWGVIDVKRSYVTMTATKIEITMRKAEPMQWASLELPAAKKQEKQKDATTD
B9: Alpha-2-macroglobulin (protein, UniProt P01023 24-1474, looked up)
Alpha-2-macroglobulin: SVSGKPQYMVLVPSLLHTETTEKGCVLLSYLNETVTVSASLESVRGNRSLFTDLEAENDVLHCVAFAVPKSSSNEEVMFLTVQVKGPTQEFKKRTTVMVKNEDSLVFVQTDKSIYKPGQTVKFRVVSMDENFHPLNELIPLVYIQDPKGNRIAQWQSFQLEGGLKQFSFPLSSEPFQGSYKVVVQKKSGGRTEHPFTVEEFVLPKFEVQVTVPKIITILEEEMNVSVCGLYTYGKPVPGHVTVSICRKYSDASDCHGEDSQAFCEKFSGQLNSHGCFYQQVKTKVFQLKRKEYEMKLHTEAQIQEEGTVVELTGRQSSEITRTITKLSFVKVDSHFRQGIPFFGQVRLVDGKGVPIPNKVIFIRGNEANYYSNATTDEHGLVQFSINTTNVMGTSLTVRVNYKDRSPCYGYQWVSEEHEEAHHTAYLVFSPSKSFVHLEPMSHELPCGHTQTVQAHYILNGGTLLGLKKLSFYYLIMAKGGIVRTGTHGLLVKQEDMKGHFSISIPVKSDIAPVARLLIYAVLPTGDVIGDSAKYDVENCLANKVDLSFSPSQSLPASHAHLRVTAAPQSVCALRAVDQSVLLMKPDAELSASSVYNLLPEKDLTGFPGPLNDQDNEDCINRHNVYINGITYTPVSSTNEKDMYSFLEDMGLKAFTNSKIRKPKMCPQLQQYEMHGPEGLRVGFYESDVMGRGHARLVHVEEPHTETVRKYFPETWIWDLVVVNSAGVAEVGVTVPDTITEWKAGAFCLSEDAGLGISSTASLRAFQPFFVELTMPYSVIRGEAFTLKATVLNYLPKCIRVSVQLEASPAFLAVPVEKEQAPHCICANGRQTVSWAVTPKSLGNVNFTVSAEALESQELCGTEVPSVPEHGRKDTVIKPLLVEPEGLEKETTFNSLLCPSGGEVSEELSLKLPPNVVEESARASVSVLGDILGSAMQNTQNLLQMPYGCGEQNMVLFAPNIYVLDYLNETQQLTPEIKSKAIGYLNTGYQRQLNYKHYDGSYSTFGERYGRNQGNTWLTAFVLKTFAQARAYIFIDEAHITQALIWLSQRQKDNGCFRSSGSLLNNAIKGGVEDEVTLSAYITIALLEIPLTVTHPVVRNALFCLESAWKTAQEGDHGSHVYTKALLAYAFALAGNQDKRKEVLKSLNEEAVKKDNSVHWERPQKPKAPVGHFYEPQAPSAEVEMTSYVLLAYLTAQPAPTSEDLTSATNIVKWITKQQNAQGGFSSTQDTVVALHALSKYGAATFTRTGKAAQVTIQSSGTFSSKFQVDNNNRLLLQQVSLPELPGEYSMKVTGEGCVYLQTSLKYNILPEKEEFPFALGVQTLPQTCDEPKAHTSFQISLSVSYTGSRSASNMAIVDVKMVSGFIPLKPTVKMLERSNHVSRTEVSSNHVLIYLDKVSNQTLSLFFTVLQDVPVRDLKPAIVKVYDYYETDEFAIAEYNAPCSKDLGNA

What follows are molecules tested on human HL60 cells (assay: SWATH-MS proteomics, differential protein representation, akirin2 KO vs WT HL60 cells). Details: KO vs WT HL60 cells; sheet "Under-represented in KO".
Format: cell-based
Outline: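 Differential representation compares akirin2 KO with WT HL60 across three biological replicates, 5 µg digest each, acquired by data-independent SWATH on a 120-min gradient. Library built from combined IDA runs searched with Paragon; proteins accepted at 1% FDR, with total-area-sum normalization.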
For B1, the “Fold Change” value was 0.5286 and the “Log (Fold Change)” value was -0.2769.
In the case of B2, the “Fold Change” value is reported as 0.5228 and the “Log (Fold Change)” value is reported as -0.2816.
B3 was tested, and the “Fold Change” value was 0.5176 and the “Log (Fold Change)” value was -0.286.
B4 was tested, and the “Fold Change” value was 0.5221 and the “Log (Fold Change)” value was -0.2822.
B5 was tested, and the “Fold Change” value was 0.5207 and the “Log (Fold Change)” value was -0.2834.
With B6 the “Fold Change” value was 0.5201 and the “Log (Fold Change)” value was -0.2839.
For B7, the “Fold Change” value was 0.5261 and the “Log (Fold Change)” value was -0.279.

Same assay, conditions: SWATH-MS, akirin2 KO vs WT HL60 cells; over-represented in KO
For B8, the “Fold Change” value was 1.486 and the “Log (Fold Change)” value was 0.1721.
In the case of B9, the “Fold Change” value is reported as 4.777 and the “Log (Fold Change)” value is reported as 0.6792.
